Results taken from patent US20180355338A1.

How the values were obtained:
[1] = biological target: TY-145 protease variant S27K, S171N, S173P, G174R, S175P, F180Y, L184F, Q198E, T297P (Bacillus sp. TY-145); test: Ki fitted from Suc-AAPF-pNA activity; Model B detergent; ratio against m4 (without L184F)
[2] = biological target: TY-145 protease variant S173P, S175P, I178F, F180Y (Bacillus sp. TY-145); test: Ki fitted from Suc-AAPF-pNA activity; Model B detergent; ratio against m3 (without I178F); second row of the same variant
[3] = biological target: TY-145 protease variant K146W, S173P, S175P, F180Y (Bacillus sp. TY-145); test: Ki fitted from Suc-AAPF-pNA activity; Model B detergent; ratio against m3 (without K146W)
[4] = biological target: TY-145 protease variant S173P, S175P, I178P, F180Y (Bacillus sp. TY-145); test: Ki fitted from Suc-AAPF-pNA activity; Model B detergent; ratio against m3 (without I178P)
[5] = biological target: TY-145 protease variant S27K, I121V, S171N, S173P, G174R, S175P, F180Y, L184F, Q198E, T297P (Bacillus sp. TY-145); test: Ki fitted from Suc-AAPF-pNA activity; Model B detergent; ratio against m6 (without L184F)
[6] = biological target: TY-145 protease variant S27K, S171N, S173P, G174R, S175P, F180Y, G182A, L184F, Q198E, N199K, R224G, T297P (Bacillus sp. TY-145); test: Ki fitted from Suc-AAPF-pNA activity; Model B detergent; ratio against m13 (without R224G)
[7] = biological target: TY-145 protease variant K146N, S173P, S175P, F180Y (Bacillus sp. TY-145); test: Ki fitted from Suc-AAPF-pNA activity; Tris buffer pH 8; ratio against m3 (without K146N)
[8] = biological target: TY-145 protease variant I150A, S173P, S175P, F180Y (Bacillus sp. TY-145); test: Ki fitted from Suc-AAPF-pNA activity; Tris buffer pH 8; ratio against m3 (without I150A)
[9] = biological target: TY-145 protease variant S173P, S175P, F180Y, L184F (Bacillus sp. TY-145); test: Ki fitted from Suc-AAPF-pNA activity; Model B detergent; ratio against m3 (without L184F)
[10] = biological target: TY-145 protease variant S173P, S175P, F180Y, R224G (Bacillus sp. TY-145); test: Ki fitted from Suc-AAPF-pNA activity; Model B detergent; ratio against m3 (without R224G)
[11] = biological target: TY-145 protease variant S27K, S173P, G174K, S175P, F180Y, L184F, Q198E, N199R, T297P (Bacillus sp. TY-145); test: Ki fitted from Suc-AAPF-pNA activity; Model B detergent; ratio against m9 (without L184F)
[12] = biological target: TY-145 protease variant K146F, S173P, S175P, F180Y (Bacillus sp. TY-145); test: Ki fitted from Suc-AAPF-pNA activity; Tris buffer pH 8; ratio against m3 (without K146F)
[13] = biological target: TY-145 protease variant K146T, S173P, S175P, F180Y (Bacillus sp. TY-145); test: Ki fitted from Suc-AAPF-pNA activity; Model B detergent; ratio against m3 (without K146T)
[14] = biological target: TY-145 protease variant L184F (Bacillus sp. TY-145); test: Ki fitted from Suc-AAPF-pNA activity; Model B detergent; relative to TY145 backbone
[15] = biological target: TY-145 protease variant G182A (Bacillus sp. TY-145); test: as above
[16] = biological target: TY-145 protease variant R224G (Bacillus sp. TY-145); test: as above
[17] = biological target: TY-145 protease variant Q70A (Bacillus sp. TY-145); test: as above
[18] = biological target: TY-145 protease variant S114A (Bacillus sp. TY-145); test: as above
[19] = biological target: TY-145 protease variant Q70F (Bacillus sp. TY-145); test: as above
[20] = biological target: TY-145 protease variant I150N (Bacillus sp. TY-145); test: as above
[21] = biological target: TY-145 protease variant L184Y (Bacillus sp. TY-145); test: as above
[22] = biological target: TY-145 protease variant I150S (Bacillus sp. TY-145); test: as above
[23] = biological target: TY-145 protease variant Q70N (Bacillus sp. TY-145); test: as above
[24] = biological target: TY-145 protease variant Y240R (Bacillus sp. TY-145); test: as above
[25] = biological target: TY-145 protease variant S111R (Bacillus sp. TY-145); test: as above
[26] = biological target: TY-145 protease variant S173P, S175P, I178Y, F180Y (Bacillus sp. TY-145); test: Ki fitted from Suc-AAPF-pNA activity; Model B detergent; ratio against m3 (without I178Y)

In the case of “Z-Gly-Ala-NHCH(CH2C6H4pOH)C(OH)(SO3Na)-H, wherein Z is benzyloxycarbonyl (peptide)”, the relative Ki mutation [1] is reported as 0.18, the relative Ki mutation [2] is reported as 0.49 and the relative Ki mutation [3] is reported as 0.23. For the same substance, the relative Ki mutation [4] was 0.51, the relative Ki mutation [5] was 0.3 and the relative Ki mutation [6] was 0.69. It also gave a relative Ki mutation [7] of 0.91, a relative Ki mutation [8] of 0.4 and a relative Ki mutation [9] of 0.31. For the same substance, the relative Ki mutation [10] was 0.47, the relative Ki mutation [11] was 0.22 and the relative Ki mutation [12] was 0.19. It also gave a relative Ki mutation [13] of 0.08, an IF (binding constant improvement factor, relative Ki) [14] of 0.44 and an IF (binding constant improvement factor, relative Ki) [15] of 0.54. It also gave an IF (binding constant improvement factor, relative Ki) [16] of 0.6, an IF (binding constant improvement factor, relative Ki) [17] of 0.39 and an IF (binding constant improvement factor, relative Ki) [18] of 0.47. It also gave an IF (binding constant improvement factor, relative Ki) [19] of 0.12, an IF (binding constant improvement factor, relative Ki) [20] of 0.27 and an IF (binding constant improvement factor, relative Ki) [21] of 0.22. For the same substance, the IF (binding constant improvement factor, relative Ki) [22] was 0.2, the IF (binding constant improvement factor, relative Ki) [23] was 0.3 and the IF (binding constant improvement factor, relative Ki) [24] was 0.84. For the same substance, the IF (binding constant improvement factor, relative Ki) [25] was 0.9 and the relative Ki mutation [26] was 0.53.
